Results taken from the DeepSol protein solubility set.

Experiment: soluble on expression in E. coli; label from the status in PepcDB or PDB records

Sequence	soluble on expression in E. coli
MAGDPMGRQRGAGLGGGHDEREQTLNQMLVEMDGFSGNDGVIVIAATNRPDVLDPALTRPGRFDRQVVVGLPDVKGREQILKVHMRKVSVAQDVDAMTLARGTPGYSGADLANLVNEAALFAARVNKRTVTMLEFEKAKDKINMGPERRTMIMTDKQKESTAYHEAGHAIVGYLVPEHDPVHKVTIIPRGRALGVTFFLPEGDQISISQKQLESKLSTLYAGRLAEDLIYGEENISTGASNDIKVATNIARNMVTQWGFSEKLGPILYTEDEGEVFLGRSMAKAKHMSDETAHSIDEEVRAIVNRNYARAREILIDNMDILHAMKDALVKYETIEEEQIKQLMNREPVTPPSGWGEPKTQQAAYANSTTNDTKPESAVENTDDFNVAAALEHHHHHH	not soluble
MAGDPMITETQLTAIQTYALQKLAHDHSGHGRDHLQRVNRLARRLAKDEGANLNLTLAAAWLHDVIDDKLMANPAKAHQDLIVQLNAQNVTADDQTAIFAIIDHMSFSKSFNGPQKLSLEGQVVQDADRLDAIGAIGIARALYYSGHVGEKIYDPAIAPREHMTREQYRHQPGTAINHFYEKLFKLAALMNTDTAKALAAHRTAVMHEFVDQFKAEWTADDKALEHHHHHH	soluble
MAGDPMITVVGVRFKKAGKIYYFSPGDLNINKGDDVIVETARGIEYGNCVIGLKQVGEESIVSPLKSVIRVATDEDEIKYRENKNKEKEAFNICLSKIKKHELVMKLIDVEYTFDNNKIIFYFTAEGRVDFRELVKDLASVFRTRIELRQIGVRDEAKMIGGFGVCGRPMCCALYLGDFAPVSIKMAKEQNLSLNPSKISGVCGRLMCCLNYEQETYETIRKRMPKVGSIVSTKEYGKAEVVDNNIIKEAVKIKFTAEDGESISEAEVHIKDLKLISGSYEGNVDESQIKLELEDVDAKEVKELFKTDLEHHHHHH	not soluble
MAGDPMKVFVVNLDKDKDKKEKIKNECRNAELDYEIISAVDGRELSYNELKSKVHPVSLNYLSKGEIGCVLSHQRIYKRILDDDIDYALILEDDVELSQDIKVFLKEFLSVKDKNKGDVFLLYPSGLRFLNRRINVSHDYFFYEAYNSSCAHGYIISNKAAKKLIRINTPIILVADAWLWFYQISLLKVYVLNKELVRAYDVDKSLSTIETERSLLLDEKEKHQMQIIKKQPLYYLIKYYHKYIRRLFINKDKLEHHHHHH	soluble
MAGDPMVRLNVKPTRMELNNLKERLTTAERGHKLLKDKRDELMRRFISLIRENNQLRKEVESYLIDNLKSFAVAKSLKNSQMVEELFSIPSKEIELFVEKENIMSVTVPRMHMNITSQNENSEYSYLSSNSEMDDVFATMNSLIYKLLRLAEVEKTCQLMADEIEKTRRRVNGLEYSIIPNLSETIHYIELKLEEAERANLVRIMKVKLEHHHHHH	not soluble
MAGDSTDKAFQNFAYLLFLRNILTKSNFSETKNKPEAYNQFLFQKLKKILNLFQILQFILENIHCKPGDRIAILFAYSNDLDRNVVKNVWNTADFGFYSHFLVFANVRFDVRQEEEILFHYSYLNATSSVFSKLPDSSLGFGNNATGSDSLKTIDVGKFYSNNQVPVCGSIVLILSKRYPNELKILEVSRKVQEHHGIVHVISSVFPSGGTQSKALYKLTSRTNGICAFQEDSQFSEVSDFINISSKYYDGWHLLSHIVGSLPISGTPYPIYSVNPRVSGLGSLVLPSLSVPFSGRFYFVVTVQDHGPIDTFRSINLSWYNAKSRSSNHFLISNGQKYEINREEWFDLDPVIYNMTLNYSYLTFQDIQIRVYSSRPPEDWLPCCDSTN	not soluble
MAGEAGQPSEPLNLLAGMAAAPWDYDFFQALRRIECESPQLPRLGHSVRLADDPLRLGQKPDCTFAPSTLASVSQAGTAAVPRLDQFFFGLTGPNGPLPLHLTEYARERQRNVNDATFKRFMDVFHHRLLTLFYRAWAEARPEISHDRIDDDYWSARLAALSGRGMPSLRGREPLADTARYYYTGHLAAQTRYPDGLRVILAEYFEVPVAVEEYVGQWLELPERSRLGVDSTSLGMDVCLGTHVWDRQHKFRLRLGPLDLDQYQRFLPDGDHFVELAAWVAEYLGEELDWDVNLVLQRHEVPPLGLQGGGRLGFNTWLGDPGQDARDLLLARQYATARPHEHKEKEHE	not soluble
MAGKLIANLIVMGSGIIGRAMLQAYRKALDNANKTGVAHETINNIRRASKTMTEQEARQILGVSEQSTWEEIAQRYDNLFERNAKSGSFYLQSKVHRAKECLENVYQKNKQDGTPP	soluble
MAGRKKTTACKLFVLDTNVLLHDPTCLYRFEEHDVFIPIITLEELDTHKKGMSEVARNARQASRFLDDIISGNELNISEGIPLKHASRDAASGKLILQTQAINGTLPSSLPMGKADNQILGIVMALKSHYQGRAVILVSKDINMRIKARALGLEAEDYFNDKVLEDTDVL	not soluble
MAGRLREMRCELSFLKNADGSACFSQGATCIWASCSGPGDVHASKASDEAMTLDISYRANCGDNKFNVLNNIIHSTLSNAINLELFPHTTISVTVHGIQDDGSMGAVAINGACFALLDNGMPFETVFCGVLIVRVKDELIIDPTAKQEAASTGRVLFSVCKGSDGHPEVCAMDAIGHWDFIQLEAAWSLAQPSASAIFDFYKTVMKRKLSVDEQLEHHHHHH	soluble
MAHHHHHHMADTQPVPATVTSAHGAHAEAFGESFIVTLSSENLRVQLLSHGAALNSVQVRKPHPAASATASASATAEQDDEWLEVCLGYTNPEEALSADAVIGHTIGRYAGRIANGEFEIANTTYTLAKNFGPHNLHGGPVGFQHQEWKYLLSDGRDETGVAFHLVSPHMDQGFPGELFVTATYSIIKSAPVPTLKYVLQASLSDNTPVDMTVINLTNHAYWNLNGVPRPAAADAVAPLPRSIANHYLQLQSKYFAVTDELSIPNGDMRPVEGTPHDYSALRCVAEGMEATKEEGRDGGGYDDPVALETWDSTLREAALVYSPATKLRMQVCTTNPAIVVYTANHLPADASGSKGQRFQQHSAICLECQYFPNSPNVRAFPSTVLKKGEAYNETTIHAFQFMNADITPEEKLLRRQ	soluble
MAHHHHHHMAECSGVADDDTTKKLLLEGDSALRQGRSYYQEALAKYTEALTHNPNSIRGLYSRAELLSMLRRRDACMSDLDQLLKLDSKHQRGLVLRSALYSQAGQLKEAVRDVEKLVEVMSEGGKAAKVQEYKAKLQQLRRYAEVWIPLQLKLQAAKQGAVTLSRDEQCACVGFLHDMIREFAKDNAGLRLQRAECALACGDNQAASEELKYVVQREPQNLDAVALGARALRALGALEQARRELRRCLSLDPEFALCAQLHKLVREQIRVTQGVEKALEEKDYGKVLKLIEGAMRFEENPPYKDQLLRWRCDAAVGMQDTKDGLPACDEAIQLYSPEDPTVVSILLQKLELYLMDGNVERAEEMLQRAQQLQPNDGKVNEYKRKMERIKRVGLRKNYYKILGVKKTADSSEIRRAYRHLAKTFHPDKLASQELSKEERAEADKRFRDINEAKEILLDDEKRARYDNGEDPTKPPGQDEHAFHGQPFNFPNEMFGQGGRFQQFYFHFD	not soluble
MAHHHHHHMAESAVLTPLSARHTVSPRDRSALATGISTLSSPTEETIEVDGATTTPSLPPETRVNVTEKLSDDGAERWPGDPEPPSQGCVASSSAANAHLPISSPALVRDEGHAHITAADYADRQRLLYHITYLSTQLQRAQLQVEDLTRTVCVLRGAVGDSAAATVAKAAVKEDATSAAVLAAKEERDVHAALQASLALFDPVIAQTQIYRLDDALAQVGLLREAELAQLRKANAALQDHRTFVSRLSEELAQLRSKTATLEQEKQRTETQLTAAVLEVEQLRYEERRLNNRVAGLEELAQDGTWMSNVRVVSAAAASTQASVSQQQPLVRLEREEQLARQALLLHVFWDPVLIAFDAGLTWLSDSAALQAKGSAAQEQPVAPGGAKAFVGERDLISLAQAGILVETPALPTDADLLLLQRQQEEVTQLRSRVQLLQERNRVGQLENERLQFLYEGEVRRNERMAKDHAAQLQQAYDEVVRDRQYIMNKLKQEVEDQIRLAYEDGRAYEQSRAKSRRSQKAFRAGNAVL	not soluble
MAHHHHHHMAHVITRINAREILDSRGNPTVEVDLETNLGIFRAAVPSGASTGIYEALELRDNDKSRYLGKGVQKAIKNINEIIAPKLIGMNCTEQKKIDNLMVEELDGSKNEWGWSKSKLGANAILAISMAVCRAGAAANKVSLYKYLAQLAGKKSDQMVLPVPCLNVINGGSHAGNKLSFQEFMIVPVGAPSFKEALRYGAEVYHTLKSEIKKKYGIDATNVGDEGGFAPNILNANEALDLLVTAIKSAGYEGKVKIAMDVAASEFYNSENKTYDLDFKTPNNDKSLVKTGAQLVDLYIDLVKKYPIVSIEDPFDQDDWENYAKLTAAIGKDVQIVGDDLLVTNPTRITKALEKNACNALLLKVNQIGSITEAIEACLLSQKNNWGVMVSHRSGETEDVFIADLVVALRTGQIKTGAPCRSERNAKYNQLLRIEESLGNNAVFAGEKFRLQLN	not soluble
MAHHHHHHMALPPATLQSPAVPDGQQHLGCSGGSGHLSVAALDQSRTPLYSAERRASLCDESGALAAVSLSADASRPTAANFVKGELIGKGSYGAVYRGMQRSNNRIIAMKEIRLPGVVEQQLRQSEKLAATAASPAGVSSPVLPASNSVKGESALAKEVAAIKRELTLLKQLNHPNIVRYLNDEVVDGTLRIYMDYVSGGSVTAALKSYGSFEEPQAAALCFQLLQGLVYMHRRGIIHRDLKGDNLLLETSSQLKIADLGTAKSIFSSATMTTSIVGTAYFMAPEVLQPSGAAVGTAADIWSVGCCLIEMMTGKPPLSDLPNQFTVMMAIGGSATVPLDKYIPADNTWSDEVLDFISQCLRANPAQRPTAVDLLQHSWFAKFLNVMHAPSMSTPATLDSMLTPTAPPIERPFTLSPQRQMVSPICSPNLTAALTPGYAGPQYSSGQPESSASSHTSRERKGKRDKRVSARRHARYSTSGATSATSRRSQESSQASTPQYSSGTRTRDGSAQSASLPRSHSHPGRQQGPSSKRRAHAHIVGHGLPRDDSRQSFSSEQAMPQHTCTPGSGGAGDGSGENKTKTAFLPAITHNGSVAPSPCGYSLDVSRCSRSLKNSGSSREPTKACLYTTDTENKS	not soluble
MAHHHHHHMATARSYFYYLDAHGNLFPVTDIKGLIDGTNIPAGPIQLRDRAFLDFFYLRLKRSDVEDAAACSNVSDRREEGELLLHSGAKLTPQEVVQHFPYVSICGPERNFLKAEEAPLVFVNYTSGHPKCKQQNGTLAFGESLWEDFQPQALVVTREGKLFHPITKLKNLIATQNGAGDAVPRGLVEAQVVKKLGLELVCDSAKSGYYVLEWKGQKQRIPYFDEL	not soluble
MAHHHHHHMCVSELRRLRGHGRNVYIIYDVAKGGTPPPRHFAPTSGWGMIVVPSPNVANYDEWAKQLQAARVIVNCPDEVDVKAICTWMKQGQDPGKQAEYWRIVEERMKRVGPILRYIFDGESYIDPLGAVNDALLAMKPSDVGEYFTLGGEKTWCSEDPCHKLVKIVRARTDEGAEVFLNASISADIGFRTADRLKKEMCARDLLLLILRSHGALASQALEKFGLRAFMYGEPVSALVKGLNELRSPERDEAQDSVLKVNHQGHPTRAVGLA	soluble
MAHHHHHHMDGEALFNHIASCSETGYLTMEDFVRWMSETATDKGQKNYESIDVDERAVMRKALLQLCERLEARCLNSLQMFRLASTMPRAYTERRADIYSLANPHRDALVTPVQLRRCIEEVLGGNPSPREMDALLSFFFPQLPLEEYRSRRDGDLEHALDLKAFQKKYHEMNKLLMLSEPSKQQQQTQQRQQE	soluble
MAHHHHHHMDINNIMEEVQAIKVLPHMMFNASKLKVLSDYVNVAFENNEYYDNDVMLTLLRLFCLYPHCYDKDIIKKILICVLYNINNVDMNMYMSLINSSLYDDNIKSVIYIYELIKNCQYKKLWNCINNNIGNEYNNCDYSYLKNDKNFICNIRKYILNTISISFESIYLKNMSEYLNIQDNTQLEQFLNENKWTIKMINHKGKDEQICYNGNIETVQNKKNINTYFTEDNIGSYITKLNH	not soluble
